Several values for one entry are separate records, joined by “and”; a condition that tells them apart may be missing. Identical values can stand only once.

The values below come from patent US20200299373A1.

The target of assay [1] is recombinant human FAM19A5 protein (His-tagged) (human) (UniProt Q7Z5A7). Put plainly: ELISA on N'-Term His FAM19A5, fit of the titration; R2 printed 0.9329. (In an ELISA, binding on a coated surface is turned into a signal by an enzyme label.)
Assay [2] has the same target. Put plainly: ELISA on N'-Term His FAM19A5, fit of the titration (OD 492 nm); R2 printed 0.9329.
Assay [3] has as its target T1, FAM19A5 epitope fragment F1 conjugated to BSA (human).
T1 chain: QLAAGTCEIVTLDR
Put plainly: ELISA, antigen coated on the plate, antibody in solution, absorbance at 492 nm. To be noted: remark: other sources report otherwise.

In assay [4] the target is T2, FAM19A5 epitope fragment F3 conjugated to BSA (human).
T2 chain: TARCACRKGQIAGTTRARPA
The assay is described as above. The note with it: remark: other sources report otherwise.

In assay [5] the target is T3, FAM19A5 epitope fragment F4 conjugated to BSA (human).
T3 chain: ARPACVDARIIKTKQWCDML
Described as above. The note with it: remark: other sources report otherwise.

Assay [6] has as its target T4, FAM19A5 epitope fragment F5 conjugated to BSA (human).
T4 chain: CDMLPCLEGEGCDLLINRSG
The assay is described as above. The note with it: remark: other sources report otherwise.

The target in assay [7] is T5, FAM19A5 epitope fragment F6 conjugated to BSA (human).
T5 chain: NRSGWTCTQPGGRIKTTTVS
Described as above. The note with it: remark: other sources report otherwise.

For assay [8], the target named is recombinant human FAM19A5 protein (His-tagged) (human) (UniProt Q7Z5A7). Put plainly: ELISA on coated FAM19A5, as in Example 6.
The target is the same in assay [9]. Put plainly: ELISA on N'-Term His FAM19A5, fit of the titration (OD 492 nm); R2 printed 0.8806.
Assay [10] has the same target. The assay can be described thus: ELISA, His-FAM19A5 (positive control) coated on the plate, absorbance at 492 nm.
Assay [11] has the same target. Put plainly: two-site sandwich ELISA; capture antibody 3-2; biotinylated detection antibody 1-65; antigen in ng/mL.
Assay [12] shares this target. The assay can be described thus: two-site sandwich ELISA; capture antibody 13B4; biotinylated detection antibody 1-65; antigen in ng/mL.
The target is the same in assay [13]. The assay can be described thus: two-site sandwich ELISA; capture antibody 2-13; biotinylated detection antibody 1-65; antigen in ng/mL.
Assay [14] has the same target. The assay can be described thus: two-site sandwich ELISA; capture antibody P2-A03; biotinylated detection antibody 1-65; antigen in ng/mL.
For assay [15] the target is unchanged. The assay can be described thus: two-site sandwich ELISA; capture antibody P2-F11; biotinylated detection antibody 1-65; antigen in ng/mL.
For assay [16] the target is unchanged. The assay can be described thus: two-site sandwich ELISA; capture antibody 3-2; S/N = O.D. at 10 ng/mL antigen / O.D. at 0 ng/mL; O.D. in column 0 printed 0.28.
Assay [17] shares this target. Put plainly: two-site sandwich ELISA; capture antibody 13B4; S/N = O.D. at 10 ng/mL antigen / O.D. at 0 ng/mL; O.D. in column 0 printed 0.15.
The target is the same in assay [18]. Put plainly: two-site sandwich ELISA; capture antibody 2-13; S/N = O.D. at 10 ng/mL antigen / O.D. at 0 ng/mL; O.D. in column 0 printed 0.55.
Assay [19] has the same target. The assay can be described thus: two-site sandwich ELISA; capture antibody P2-A03; S/N = O.D. at 10 ng/mL antigen / O.D. at 0 ng/mL; O.D. in column 0 printed 0.1.
The target is the same in assay [20]. The assay can be described thus: two-site sandwich ELISA; capture antibody P2-F11; S/N = O.D. at 10 ng/mL antigen / O.D. at 0 ng/mL; O.D. in column 0 printed 0.19.
The target is the same in assay [21]. The assay can be described thus: ELISA on N'-Term His FAM19A5, fit of the titration; R2 printed 0.8823.
Assay [22] shares this target. Put plainly: ELISA on N'-Term His FAM19A5, fit of the titration (OD 492 nm); R2 printed 0.8823.
The target is the same in assay [23]. Put plainly: two-site sandwich ELISA; capture antibody 3-2; biotinylated detection antibody 13B4; antigen in ng/mL.
Assay [24] has the same target. The assay can be described thus: two-site sandwich ELISA; capture antibody 1-65; biotinylated detection antibody 13B4; antigen in ng/mL.
The target is the same in assay [25]. The assay can be described thus: two-site sandwich ELISA; capture antibody 2-13; biotinylated detection antibody 13B4; antigen in ng/mL.
Assay [26] shares this target. The assay can be described thus: two-site sandwich ELISA; capture antibody P2-A03; biotinylated detection antibody 13B4; antigen in ng/mL.
Assay [27] has the same target. Put plainly: two-site sandwich ELISA; capture antibody P2-F11; biotinylated detection antibody 13B4; antigen in ng/mL.
Assay [28] has the same target. Put plainly: two-site sandwich ELISA; capture antibody 3-2; S/N = O.D. at 10 ng/mL antigen / O.D. at 0 ng/mL; O.D. in column 0 printed 0.13.
Assay [29] has the same target. The assay can be described thus: two-site sandwich ELISA; capture antibody 1-65; S/N = O.D. at 10 ng/mL antigen / O.D. at 0 ng/mL; O.D. in column 0 printed 0.12.
Assay [30] has the same target. Put plainly: two-site sandwich ELISA; capture antibody 2-13; S/N = O.D. at 10 ng/mL antigen / O.D. at 0 ng/mL; O.D. in column 0 printed 0.21.
Assay [31] has the same target. Put plainly: two-site sandwich ELISA; capture antibody P2-A03; S/N = O.D. at 10 ng/mL antigen / O.D. at 0 ng/mL; O.D. in column 0 printed 0.14.
Assay [32] shares this target. Put plainly: two-site sandwich ELISA; capture antibody P2-F11; S/N = O.D. at 10 ng/mL antigen / O.D. at 0 ng/mL; O.D. in column 0 printed 0.15.

B1: 13F7 (antibody, V domains shown)
VH: QVQLQEWGAGLLKPSETLSLTCAINAESFNGYSWTWIRQTPGKGLEWIGEISHFGSANYNPSLKSRATISADKSKNQFSLKLTSVTAVDTAVYYCARALRGTYSRFYYGMDVWGQGTTVTVSS
VL: DIVMTQTPLSLPVAPGEPASISCRSSQSLLHSNGYNYLDWYVQKPGQPPQLLIYLGSNRASGVPDRFSGSGSGTDFTLKISRVEAEDVGVYYCMQARQTPLTFGGGTKVEIKR
A word on the Kd: it is the equilibrium constant for the complex coming apart. For B1, the Kd in [1] was 2.77 nM. Also, in assay [2], the Bmax was found to be 3.04.

B2: anti-FAM19A5 antibody 3-2 (antibody, V domains shown)
VH: not shown
VL: ALTQPSSVSANPGETVKITCSGGGSYAGSYYYGWYQQKAPGSAPVTLIYESNKRPSDIPSRFSGSTSGSTATLTITGVQADDEAIYYCGSWDSSNGGIFGAGTTLTVL
modifications: here or on the partner: conjugated to BSA
As to B2, the O.D. in [3] is 0.06 and 0.05; in assay [4], 0.06 and 0.05; in assay [5], 0.05; in assay [6], 0.05; in assay [7] it was 0.05.

B3: anti-FAM19A5 antibody 1-65 (antibody, V domains shown)
VH: AVTLDESGGGLQTPGGALSLVCKASGFTFSSYQMGWVRQAPGKGLEWVGVINKSGSDTSYGSAVKGRATISRDNGQSTVRLQLNNLRAEDTGTYFCAKGSASYITAATIDAWGHGTEVIVSS
VL: ALTQPSSVSANPGETVKITCSGGGSSGYGYGWYQQKSPSSAPLTVIYWNDKRPSDIPSRFSGSKSGSTHTLTITGVQAEDEAVYFCGNDDYSSDSGYVGVFGAGTTLTVL
With B3, in [8], the Kd is 0.1 nM. Moreover, in assay [9], the Bmax came to 3.26. Further, the O.D. in assay [10] was 3.95. In addition, the O.D., antigen 100 is 1.98 in [11]; 0.19 in [12]; 1.73 in assay [13]; 0.16 in assay [14]; 1.61 in assay [15]. Also, the O.D., antigen column 10 in assay [11] was determined as 1.83; in [12], 0.15; in assay [13], 1.81; in assay [14] it was 0.11; in [15], 0.33. Moreover, the S/N was 6.5 in assay [16]; 1 in assay [17]; 3.3 in assay [18]; 1.1 in assay [19]; 1.7 in assay [20].

B4: anti-FAM19A5 antibody 13B4 (antibody, V domains shown)
VH: QVQLQESGPGLVKPSGTLSLNCAVSGGSISSSNWWSWVRQPPGKGLEWIGEIYHGGTTNYNPSLKGRVTMSVDKTKNQFSLRLSSVTAVDTAVYYCARWQLVGGLDVWGQGTTVTVSS
VL: SYELTQPLSVSVSPGQTASITCSGDKLGNVYASWYQQKPGQSPTLVIYQDNKRPSGIPERFSGSNSGKTATLTISGTQALDEADYYCQAWDSSTAVFGGGTKLTVLR
modifications: Biotinylated when used as detection antibody in FIG. 6B.
With B4, the Kd in [21] worked out at 1.06 nM. Further, the Bmax in assay [22] was found to be 2.84. Moreover, the O.D., antigen 100 was determined as 1.7 in [23]; 0.12 in assay [24]; 1.92 in assay [25]; 0.15 in [26]; 0.14 in [27]. The O.D., antigen column 10 in assay [23] was 0.3; in [24] it was 0.12; in assay [25] it was 0.65; in [26] it was 0.16; in assay [27] it was 0.16. Besides, the S/N is 2.3 in [28]; 1 in assay [29]; 3.1 in assay [30]; 1.1 in assay [31]; 1.1 in [32].
